System: T1, His-Tag-FGG (recombinant human fibrinogen gamma chain with N-terminal His-tag, produced in E. coli)
T1 sequence: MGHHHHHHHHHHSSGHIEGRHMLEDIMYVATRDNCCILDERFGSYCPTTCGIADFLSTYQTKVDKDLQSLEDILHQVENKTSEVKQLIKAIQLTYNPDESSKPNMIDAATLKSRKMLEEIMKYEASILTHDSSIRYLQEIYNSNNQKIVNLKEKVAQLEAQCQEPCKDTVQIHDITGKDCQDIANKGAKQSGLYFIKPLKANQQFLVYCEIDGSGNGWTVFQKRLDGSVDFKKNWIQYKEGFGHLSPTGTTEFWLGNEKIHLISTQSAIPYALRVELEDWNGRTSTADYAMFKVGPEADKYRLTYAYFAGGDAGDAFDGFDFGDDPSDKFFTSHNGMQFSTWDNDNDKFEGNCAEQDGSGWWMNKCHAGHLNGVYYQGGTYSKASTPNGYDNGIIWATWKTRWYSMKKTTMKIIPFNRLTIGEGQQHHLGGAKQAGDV

factor XIII
SDS-PAGE analysis of polymerization (crosslinking) of FGG with factor XIII: recombinant FGG can be crosslinked by factor XIII and produces dimers (about 100 kDa) and higher molecular weight FGG structures

Reference: patent publication US20240294607
